Experimental data taken from patent US20230136299A1, “TREATMENT OF LIVER FAILURE” (HEPYX LIMITED, priority 2020, published 2023).
Where “and” joins values, the source holds several entries; their conditions need not be identical. Equal values may be shown once. Entries after “also recorded” stand apart in the source; their conditions may differ.

Columns and labels:
[1] = tested on: C57B/6 mice with CCL4 + GalN induced ACLF; test: CCL4 + galactosamine (GalN) non-inflammatory ACLF mouse model
Experimental: C57B/6 mice were gavaged for 6-weeks with carbon tetrachloride (CC14) 0.5 ml/ml to induce chronic liver injury (n=8 per group). Thereafter, galactosamine (GalN) (1000 mg/kg) was administered to induce a non-inflammatory liver injury and treatment with the RIPK1 inhibitor, RIPA56 3 mg/kg i.p. was initiated every 12-hrs.

[2] = tested on: PMA-activated THP1 macrophage-like cells; test: THP1 response to LPS after G-CSF stimulation, PMA activated macrophages; type: cell-based; details: LPS 10 ng/mL ± G-CSF 100 ng/mL, TAK-242 200 nM, compared to unstimulated cells
Experimental: (§1) Densitometry was measured by using ImageJ and values are depicted as mean pixel density. After sample pooling no statistical comparison could be applied. H) Liver aSMA expression (CC14-LPS 24 hours treatment model) Liver sections were stained for aSMA (n=4 per group) as a marker of stellate cell activation. LPS increased the aSMA positive area from 1.4% ± 0.6 in CC14 animals to 8.6% ± 1.9 (p<0.001) and 9% ± 4.1 (p<0.001) when combined with G-CSF. […] Image J was used for image quantification and group comparison was performed by one-way ANOVA and post-hoc Tukey’s multiple comparison. I) THP1 response to LPS after G-CSF stimulation. THP1 were PMA activated into a macrophage like phenotype and stimulated with LPS (10 ng/mL) ± G-CSF (100 ng/mL) (2 batches in 2 replicates). Treatment was performed with TAK-242 200 nM in two of the groups. RNA extraction to measure cytokine response was performed 3-hr after LPS incubation. LPS induced an upregulation of IL-6 mRNA expression 60.2-fold in THP1 monocytes and 6.2-fold in macrophages which was enhanced by pre-incubation with G-CSF (monocytes 71-fold, macrophages 6.7-fold). TAK-242 reduced IL-6 mRNA expression compared to unstimulated cells to 5.1-fold in monocytes and 2.8-fold in macrophages resembling biological significance. […] G-CSF exaggerated the IL-1b expression 2.5-fold compared to unstimulated cells whereas it remained unchanged in macrophages (1.1-fold compared to unstimulated cells). TAK-242 decreased the IL-1b response in both cell lines (monocytes 1.3-fold and macrophages 0.7-fold compared to unstimulated cells). J) Proliferative effect of G-CSF after CC14. […] G-CSF (250 µg/kg, s.c.) was injected without previous LPS administration once daily for 5-days. Results were compared to groups administered LPS. […] Ki67 expression as a marker of hepatocyte division increased from 0.6% ± 0.2 after CC14 + LPS + G-CSF to 4.1% ± 2.9 (p<0.001) after CC14 + G-CSF. Image J was used for image quantification and group comparison was performed by one-way ANOVA and post-hoc Tukey’s multiple comparison.
(§2) Monocytes and macrophages are major source of cytokine release in liver disease. The inventors therefore tested in vitro, to what extent LPS and G-CSF modulate the cytokine response in PMA activated and native THP1 cells. […] These in vitro findings are in keeping with hepatic IL6 levels, which increased 2.8-fold in G-CSF-treated animals (FIG. 4D). […] The data help to explain the reduction in markers of organ injury in the ACLF animals treated with G-CSF/TAK-242.

[3] = tested on: C57B/6 mice with CCL4 + LPS induced ACLF; test: CCL4 + LPS ACLF mouse model; type: in vivo
Experimental: Thereafter injection of LPS (Klebsiella, 4 mg/kg, i.p.) served as a second hit to induce organ injury. […] CCL4- Carbontetrachloride; G-CSF - granulocyte colony stimulating factor.
Thereafter injection of LPS (Klebsiella, 4 mg/kg, i.p.) served as a second hit to induce organ injury.
Thereafter injection of LPS (Klebsiella, 4 mg/kg, i.p.) served as a second hit to induce organ injury. […] It majorly regulated the transition from G2 to M phase. […] E) BCL2 is the effector molecule of the STAT3 pathway which carries anti-apoptotic and antibacterial properties. […] Image J was used for image quantification and group comparison was performed by one-way ANOVA and post-hoc Tukey’s multiple comparison mRNA data is delineated as ddCt value. Western blots were performed with protein lysates pooled from all animals per group. G) Liver protein expression of markers of inflammation, cell death and regeneration/senescence (CC14-LPS 24 h treatment model). Liver lysates from 4 randomly selected animals per group were pooled and applied onto one profiler membrane.
Second, due to the conflicting data concerning the therapeutic benefit of G-CSF the present inventors performed pre-clinical studies in well-established rodent models of ACLF in order to clarify the effect of stem cell mobilisation. C57BL/6 Mice were gavaged with carbon tetrachloride (CCL4) for 6 weeks to induce liver fibrosis and subsequently injected with lipopolysaccharide (LPS) to induce tissue injury and organ failure. One hour after LPS injection mice were treated with G-CSF subcutaneously 250 µg/kg once daily for 5 consecutive days (FIG. 1A).
The inventors then tested whether TLR4 inhibition (e.g. TAK-242) rescues from G-CSF driven injury and inflammation in preclinical models of ACLF.

THP1 monocytes = test: THP1 response to LPS after G-CSF stimulation, monocytes; type: cell-based; details: LPS 10 ng/mL ± G-CSF 100 ng/mL, TAK-242 200 nM, compared to unstimulated cells
Experimental: as §1, §2

patients with ACLF [4] = test: GRAFT multicentre randomised controlled trial of G-CSF in ACLF (NCT02669680); type: in vivo, human
Text: The pathobiology of ACLF is characterised by immunopathological features comprising two opposing mechanisms as the main drivers of organ failure which are active concurrently. The first is systemic and hepatic inflammation triggered by pathogen-associated molecular patterns (PAMPs) and cell death molecules (damage associated molecular patterns (DAMPs)) mediated through the TLR4 receptor pathway. PAMPs derive through translocation of gut-derived bacteria and bacterial products (such as lipopolysaccharide-LPS) to the liver via portal the portal vein, promoting pro-inflammatory responses through the toll-like 4 (TLR4) -dependent canonical inflammasome on immune cells, as well as the TLR4-independent non-canonical inflammasome in hepatocytes (3). […] The second is a prolonged organ injury, immune cell paralysis and failure of regeneration facilitating prolonged organ dysfunction and secondary infections culminating into a vicious cycle leading to multi-organ failure and death. Stem cells and other regulatory immune cells are known to modulate immune activation thereby modulating inflammatory reactions and supporting tissue repair capacities (5). Granulocyte colony stimulating factor (G-CSF) mobilizes stem and immune cells and is perceived to carry immunomodulatory and pro-regenerative properties. […]

[5] = tested on: C57B/6 mice with CCL4 induced chronic liver injury; test: G-CSF after CCL4 without LPS (chronic liver injury mice); type: in vivo; details: CCl4 + G-CSF 250 µg/kg s.c. once daily for 5-days, no LPS
Experimental: Densitometry was measured by using ImageJ and values are depicted as mean pixel density. After sample pooling no statistical comparison could be applied. H) Liver aSMA expression (CC14-LPS 24 hours treatment model) Liver sections were stained for aSMA (n=4 per group) as a marker of stellate cell activation. LPS increased the aSMA positive area from 1.4% ± 0.6 in CC14 animals to 8.6% ± 1.9 (p<0.001) and 9% ± 4.1 (p<0.001) when combined with G-CSF. […] Image J was used for image quantification and group comparison was performed by one-way ANOVA and post-hoc Tukey’s multiple comparison. I) THP1 response to LPS after G-CSF stimulation. THP1 were PMA activated into a macrophage like phenotype and stimulated with LPS (10 ng/mL) ± G-CSF (100 ng/mL) (2 batches in 2 replicates). Treatment was performed with TAK-242 200 nM in two of the groups. RNA extraction to measure cytokine response was performed 3-hr after LPS incubation. LPS induced an upregulation of IL-6 mRNA expression 60.2-fold in THP1 monocytes and 6.2-fold in macrophages which was enhanced by pre-incubation with G-CSF (monocytes 71-fold, macrophages 6.7-fold). […] Image J was used for image quantification and group comparison was performed by one-way ANOVA and post-hoc Tukey’s multiple comparison.

patients with ACLF [6] = details: from 30% without G-CSF; cited from earlier work
[7] = 48 hours treatment, value (range)

B1: G-CSF: Granulocyte colony stimulating factor, a glycoprotein that mobilizes stem and immune cells; recombinant murine G-CSF used in mice (protein, UniProt P09920 31-208, looked up)
Granulocyte …: VPLVTVSALPPSLPLPRSFLLKSLEQVRKIQASGSVLLEQLCATYKLCHPEELVLLGHSLGIPKASLSGCSSQALQQTQCLSQLHSGLCLYQGLLQALSGISPALAPTLDLLQLDVANFATTIWQQMENLGVAPTVQPTQSAMPAFTSAFQRRAGGVLAISYLQGFLETARLALHHLA
- RIPK3 expression (necroptotic cell death) [1, 7]: 1.9% (range 0.9-2.5)
- liver cell death (TUNEL) [1, 7]: 1.2% (range 0.4-1.9)
- cell death and subsequent regenerative response ([1]; mouse, in vivo): reduced cell death and the subsequent regenerative response
- degree of proliferating (Cyclin A2, Ki67) and senescent (p21) hepatocytes ([1]; mouse, in vivo): reduced
- IL-6 mRNA expression ([2]; 3-hr after LPS): 6.7 fold
- IL-1b expression [2]: 1.1 fold
- liver fibrosis (Sirius Red) ([3]; 5-days G-CSF treatment): higher degree of liver fibrosis; also recorded: enhanced liver fibrosis; also recorded: pro-fibrotic effect
- hepatic macrophage infiltration (F4/80+) ([3]; 5 days G-CSF treatment): persisted; also recorded: aggravated liver macrophage infiltration; also recorded: maintained macrophage infiltration
- proliferating (Cyclin A positive) hepatocytes ([3]; 5 days treatment): increased the number of proliferating hepatocytes significantly
- Cyclin A2 expressing hepatocytes ([3]; CCl4 + LPS + G-CSF, 5 days): 1.4% ± 0.7
- Ki67 expression (hepatocyte division) ([3]; CCl4 + LPS + G-CSF, 5 days): 0.6% ± 0.2
- CyclinA2/TUNEL ratio ([3]; CCl4-LPS 24-hr treatment model): 0.04
- mortality ([3]; G-CSF 250 µg/kg s.c. once daily, within 48 hours after LPS injection): 50% and 66%
- hepatic IL6 levels, increase ([3]; G-CSF-treated animals (FIG. 4D)): 2.8 fold
- survival ([3]; after 48 hours, G-CSF 250 µg/kg s.c. +/- TAK-242 10 mg/kg i.p.): 50%
- number of senescent hepatocytes ([3]; after 5 days of treatment): plummet significantly
- TLR4+ liver infiltrating CD45+ cells ([3]; after G-CSF treatment (FIG. 2C)): increased
- CDKN2A (p16) mRNA level ([3]; after LPS injection): decreased in a stepwise manner
- aSMA positive area (stellate cell activation) ([3]; liver sections, CCl4-LPS 24 hours treatment model, n=4 per group): 9% ± 4.1
- hepatic cytokine expression (mRNA) (IL6, TNFa) ([3]; mouse, in vivo): increased
- number of p53 positive (senescent) hepatocytes ([3]; mouse, in vivo): reduced numerically
- injury markers (such as Lipocalin/NGAL and IL-13), protein profiler ([3]; pooled liver lysates, 24 h treatment model): increased
- IL-6 mRNA expression (THP1 monocytes; 3-hr after LPS): 71 fold
- IL-1b expression (THP1 monocytes): 2.5 fold
- survival rate / mortality of patients with ACLF (patients with ACLF [4]; 163 patients, G-CSF vs standard of care, interim analysis): did not improve the survival rate; also recorded: no effect on mortality
- mortality in subgroups (alcoholic hepatitis, ACLF according to the APASL criteria) (patients with ACLF [4]; in vivo): tend to increased mortality; also recorded: may be deleterious
- Cyclin A2 expressing hepatocytes [5]: 2.1% ± 1.3
- Ki67 expression (hepatocyte division) [5]: 4.1% ± 2.9
- survival after 60 days (patients with ACLF [6]): 70%
